Measured values from the nanobody polyreactivity screen of Harvey et al. (2022).

Assay: yeast display, Sf9 membrane polyspecificity reagent, FACS + sequencing; frameworks hold sequencing errors
Summary of the method: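 A nanobody's polyreactivity label depends on the gate it was sorted from. Yeast display cells were stained with 10% biotinylated, detergent-solubilized Sf9 membrane reagent for 1 hour at 4 °C, enriched on streptavidin microbeads and sorted by FACS. The low and high (top ~1%) gates were set on anti-HA fluorescence for expression and streptavidin fluorescence for reagent binding.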

Row | Sequence | polyreactivity (PSR sort gate)
1 | QDQLVESGGGLVQAGGSLRLSCAASGRIFRYYTRGWYRQAPGKERELVAAIRWSGSTTYYADSVKGRFTISRDYAKNTVYLLMNSLKPEDTAVYYCDARWSYPRWEFDYWGQGTQVTVSS | high polyreactivity
2 | QDQLVESGGGLVQAGGSLRLSCAASGRIFTGNAMGWYRQAHGKERELVAAISASGSSTYYADSVKGRFTISRDNAKNTVYLQMNSLKPEDTAVYYCAADGWYGYYYWGQGTLVTVSS | high polyreactivity
3 | QDQLVESGGGLVQAGGSLRLSCAASGRIFTGNVMGWYRQAPGKERELVAAITYRGGSTYYADSVKGRFTISRDNAKNTVFLQMNSLKPEDTAVYYCNTGWDPYGYDYWGQGTQVTVSS | low polyreactivity
4 | QDQLVESGGGLVQAGGSLRLSCAASGRIFVYYVMGLYRQAPGKERELVAAITYSGGSTYYADSVKGRFTISRDNAKNTVYLQMNSLKPEDTAVYYCNNVDAFGIVRLYYWGQGTQVTVSS | low polyreactivity
5 | QDQLVESGGGLVQAGGSLRLSCAASGRIFYPYVMGWYRQAPGKERELVAAISDSTGSTYYADSVKGRFTISRDNAKNTVYLQMNSLKPEDTAVYYWGQGTQVTVSS | low polyreactivity
6 | QDQLVESGGGLVQAGGSLRLSCAASGRIFYTNGMGWYRQAPGKERELVAAITYSGGNTFYADSVKGRFTISRDNAKNTVYLQMNSLKPEDTAVYYCAATFTYLGYWYDYWGQGTQVTVSS | low polyreactivity
7 | QDQLVESGGGLVQAGGSLRLSCAASGRIIRQYAMGWYRQAPGKERELVAVISAGGARTYYADSVKGRFTISRDNAKNTVYLQMNSLKPEDTAVYYCAVSYPPGAYRRHFRYGYWGQGTQVTVSS | high polyreactivity
8 | QDQLVESGGGLVQAGGSLRLSCAASGRILAYYAMGWSRQAPGKERELVAAISRAGSTNYADSVKGRFTISRDNAKNTVYLQMNSLKPEDTAVYYCAARPYRRGYNYWGQGTQVTVSS | high polyreactivity
9 | QDQLVESGGGLVQAGGSLRLSCAASGRILLDNAMGWYRQAPGKERELVAAISSGGRTYYADSVKGRFTISRDNAKNTVYLQLNSLKPEDTAVYYCAVSGGFYWGQGTQVTVSS | high polyreactivity
10 | QDQLVESGGGLVQAGGSLRLSCAASGRILTKYAMGWYRQAPGKERELVAAISDSGTGTYYADSVKGRFTISRDNAKNTVYLQMNSLKPEDTAVYYCNAQTRRTRTYHGHKYGYWGQGTQVTVSS | high polyreactivity
11 | QDQLVESGGGLVQAGGSLRLSCAASGRISPRYAMGWYRQAPGKERELVAAIDTSDGTTYFADSVKGRFTISRDNAKNTVYLQMNSLKPEDTAVYYCAAEGQLFDLYDYWGQGTQGTVSS | low polyreactivity
12 | QDQLVESGGGLVQAGGSLRLSCAASGRNIGGYAMGWNRLAPGKEWELVAAISRSGGSTYYADSVKGRFTISRDNAKNTVYLQMNSLKPEDTAVYYCAAETVSSFYTLWTGKYDYWGQGTQVTVSS | high polyreactivity
13 | QDQLVESGGGLVQAGGSLRLSCAASGRTFAYNAMGWYRQAPGKERELVADITSGGSTYYADSVKGRFTIARDNAKNKVYLQMNSLKPEDTAVYYCAAYTQFWYWDYNYWGQGTQVTVSS | high polyreactivity
14 | QDQLVESGGGLVQAGGSLRLSCAASGRTFHKYAMGWSRQAPGKEMELVAAITGSGVRTYYADSVKGRFTISRDNAKNTVYLQMNSLKPEDTAVYYGNADSYNRNGDYWGQGTQVTVSS | high polyreactivity
15 | QDQLVESGGGLVQAGGSLRLSCAASGRTFNGYAMGWYRQAPGKDRELVARITYRGGGTYYADSVKGRFTISRDNAKNTVYLQMNILKTEDTAVYYCNARGVQYRYYYWGQGTQVTVSS | high polyreactivity
16 | QDQLVESGGGLVQAGGSLRLSCAASGRTFRRYALGWYRQAPGKETELVAVISGGGTYYADSVKGRFTISRDNAKNTVYLQMNSLKPEDTAVYYCAARYRQTRSPSYDYWGQGTQVTVSS | high polyreactivity

Row | Sequence | polyreactivity (PSR sort gate)
17 | QDQLVESGGGLVQAGGSLRLSCAASGRTFRRYTKGWYRQAPGKERELVAAISRGGSTNYADSVKGRFTISRDNAMNTFYLQMNSLKPEDTAVYYCNADYWYDWNSYDYWGQGTQVTVSS | high polyreactivity
18 | QDQLVESGGGLVQAGGSLRLSCAASGRTFTRYTMGRYRPAPVKERELVAAISSGGSTTYADSVKGRFTISRDNAKNTVYLQMNSLKPEDTAVYYCAAGLVYRGYRRDYWGQGTQVTVSS | low polyreactivity
19 | QDQLVESGGGLVQAGGSLRLSCAASGRTFTYYTMGWYRQAPGKERELVAAITWSGGRTYYADSVKGRFTISRDYAKNTVYLQMNSLKPEDTAVYYCAKPPQGTYDYWGQGTQVNVSS | low polyreactivity
20 | QDQLVESGGGLVQAGGSLRLSCAASGRTFVSYAMGWYRQAPGKERELVAGISWSGDSTYYADSEKGRFTISRDNAKNTVYLQMNSLKPEDTAVYYCAAVQRTDRSAHYSWGQGTQVTLSS | low polyreactivity
21 | QDQLVESGGGLVQAGGSLRLSCAASGRTFVTYAMGWYRQAPGKEREFVAAITWSTGTSTYYADSVKGRFTISRDNAKNTVYLQMNSLKPEDTAGYYCAAYYVVHFGYWGQGTQVTVSS | low polyreactivity
22 | QDQLVESGGGLVQAGGSLRLSCAASGRTFYANAMGWNRQAPGKERELVAAISSSDDITYYADSVKGRFTNSRDNAKNTVYLQINSMKPEDTAVYYCAAEEYIVTYSGFWQEYEYWGQGTQVTVSS | high polyreactivity
23 | QDQLVESGGGLVQAGGSLRLSCAASGRTFYCYAMGGYRQAPGKDRELVAAISSGDITSYADSVKGRFTISRDNAKNTVYLQMNSVKPEDTAVYYCAAEVVAWSLYEDFKTYDYWGQGTQVTVSS | low polyreactivity
24 | QDQLVESGGGLVQAGGSLRLSCAASGRTFYRYTMGWYRQAPGKESELVAGISWRGGTTYYADSVKGRFTISRDNAKNTVYLQMNSLKPEDTAVYYCAAKAGYRYGSLAYYKYDYWGQGTQVTVSS | high polyreactivity
25 | QDQLVESGGGLVQAGGSLRLSCAASGRTLWRNTMGWYRQAPGKERELVAAITTRGGSTYYADSVKGRFTISRDNAKNTVYLQLNSLKPEDTAVYYCAARTYTGEGSGRFYYWGQGTQVTVSS | high polyreactivity
26 | QDQLVESGGGLVQAGGSLRLSCAASGRTSIWNAMGWYRQAPGKERELVASISWSGGSTYYADSVKGRFTISRDNAKNTVYLQMNSLKPEDTAVYYCAKTAYFLVFNEHLHKKRYDSWGQGTQVTVSS | low polyreactivity
27 | QDQLVESGGGLVQAGGSLRLSCAASGSIFAGYAMGWYRQAPGKESELVAAITSGGRTYYADSVKGRFTISRDNAKNTVYLQMNSLKPEDTAVYYCAKRWYTKTGYDYWGQGTQVTVSS | high polyreactivity
28 | QDQLVESGGGLVQAGGSLRLSCAASGSIFAWNAMGWYRQAPGKERELVAVITSGGSTNYADSVKGRFTISRDNAKNTVYLQMNSLKPEDTAVYYCAARSWVYSVIGDYWGQVTQVTVSS | low polyreactivity
29 | QDQLVESGGGLVQAGGSLRLSCAASGSIFFTNDMGWYRQAHGKEREFVAAITGGGGSTYYADSVKGRFTISRDNAKNTVYLQMNSLKPEDTAVYYCATKAKPRSGYNYWGQGTQVTVSS | low polyreactivity
30 | QDQLVESGGGLVQAGGSLRLSCAASGSIFGGYGMGWYRQAPGKERELVAAITSGSSTYYADSVKGRFTISRDNAKNTVYLQMNSLKPEDTAVYYCAARPYPHSAYQGDYWGRGTQVTVSS | low polyreactivity
31 | QDQLVESGGGLVQAGGSLRLSCAASGSIFGSYAMGWYRQAPGKEMELVAAISYSGASTYYADSVKGRFTISRDNAKNTVYLQMNSLKPEDTAVYYCNKDPRWRRFNYWGQGTQVTVSS | high polyreactivity
32 | QDQLVESGGGLVQAGGSLRLSCAASGSIFHGYGRGWYRQAPGKERELVASITWIGGDTYYADSVKGRFTISRDNPKNTVYLQMNSLKPEDTAVYYCNAEWVVTYIYDYWGQGTQVTVSS | low polyreactivity
